Source: paper PMC2923024

Test system: hnRNP A1, P09651-2
Test: footprinting

With “GGAUGUUCUCUUCACUGUGGGAUGAGGUAGUAGGUUGUAUAGUUUUACCCUCACACCCACCACUGGGAGAUAACUAUACAAUCUACUGUCUUUCCUAACGUGAUAGAAAAGUCUGCA [pri-let-7a-1 GGG/CCC]” the binding was “no binding”.
